Values quoted from earlier work, collected in PMC7652413.

Molecular target: SARS-CoV-2 spike protein RBD (Severe acute respiratory syndrome coronavirus 2) (UniProt P0DTC2)
Test: SPR

## CD147 (basigin) (from UniProt P35613)
  Kd: 185 nM
